Test results reported in the DeepSol protein solubility set.

Assay: soluble on expression in E. coli; label from the status in PepcDB or PDB records

## MGSDKIHHHHHHAQETLRENNGEPTLVERLSNGEIKINSAEMNFQLFTSANAEFVGNELDGMNFKLNRVRLEIKGDVGKWLGYHYRQSFNKYSDPYSLDNLSSSLELAYVNLKARPNLNFTIGKQFVNFGGYEYYVNSIRVREFSEFNNLLTAYQAGISGNWQVSPDHELCFQIVNNRNGNDEDIYPTGLPEGTAKAKIPFMYTVNWNSYYLDKSLQLRYATAVGQQTRKRYSYYFTCGNTYEKGPLLTYLDVMYTRQGIDQHGVVSRLPGTPHTAMNTEYLSIIGDVDYRVHPQWNVYVKGAYETARVYKGNGDFRKGMYRRSWNAQSSVEFFPFKQLDLFVFVLYTYRGVILEKAATRMGAIEPDTHRISLGLVYSIPVF
  soluble on expression in E. coli: not soluble

## MSGWNVNASSFVPNANARPFVPGQPYTPQPEQAAPEPTEDWEAQADTSPAAVQPEVAEPVAVQESAPVAPVSATEAPKKEPTPEEDLVAPLAKKFQRTVYVDDGTHKEHINMVFVGHVDAGKSTIGGQLMFLTGMVDKRTLEKYEREAKEKGRESWYLSWCMDTNDEEREKGKTVEVGRAYFETEKRHFTILDAPGHKSFVPNMIVGANQADLAVLVISARRGEFETGFDRGGQTREHSMLVKTAGVKHLVILVNKMDDPTVKWEEERFKEIEGKLTPFLRKLGFNPKTDITYVPCSGLTGAFIKDRPTGSEGNWYSGPCFIEFIDVLLPSYKRDFNGPVRCTVAEKYSEMGTVIIGKMESGCVQKGDTLVVMPNKQPVQVLQIWADDVETERVVAGDNIKFKLKGIEENELQGGFIICSPDSLAKTGRVFDAEVLVLEHRSIIASGYSCVLHIQSAVEEVTVKGVIATIDKKTGEKKRAKFVKQDEKCIMRLESPEPFVLEPFKEYPYLGRFTLRDEGKTIAIGKVLKVVE
  soluble on expression in E. coli: not soluble

## MGSDKIHHHHHHHEEADYSQEAHHLVEFGTLLQDDPNVIVPKYHADLSTRDVLAMDFVPSHPIDDLEAADQSERDRVATQLIALMMREVFSFQRVQSDPNFANFRWQPDTGRVVLLDFGATRVLSDNLVNAARQVLRPALDNDLTALANALRELGLLDDALPDQARKTILEMVALANEPMMDPDGFDFGNTSLVTELRTSGMALGQDRSIQSIPPIEVLYLQRKAAGLFLLATRLRARVDLRSLFKS
  soluble on expression in E. coli: not soluble

## MMLSLNNLQNIIYNPVIPYVGTIPDQLDPGTLIVICGHVPSDADRFQVDLQNGSSVKPRADVAFHFNPRFKRAGCIVCNTLINEKWGREEITYDTPFKREKSFEIVIMVLKDKFQVAVNGKHTLLYGHRIGPEKIDTLGIYGKVNIHSIGFSFSSDLQSTQASSLELTEISRENVPKSGTPQLSLPFAARLNTPMGPGRTVVVKGEVNANAKSFNVDLLAGKSKDIALHLNPRLNIKAFVRNSFLQESWGEEERNITSFPFSPGMYFEMIIYCDVREFKVAVNGVHSLEYKHRFKELSSIDTLEINGDIHLLEVRSW
  soluble on expression in E. coli: soluble

## GAMEVIKNPKVFIDPLSVFKEIPFREDILRDAAIAIRYFVKNEVKFSNLFLGLTGTGKTFVSKYIFNEIEEVKKEDEEYKDVKQAYVNCREVGGTPQAVLSSLAGKLTGFSVPKHGINLGEYIDKIKNGTRNIRAIIYLDEVDTLVKRRGGDIVLYQLLRSDANISVIMISNDINVRDYMEPRVLSSLGPSVIFKPYDAEQLKFILSKYAEYGLIKGTYDDEILSYIAAISAKEHGDARKAVNLLFRAAQLASGGGIIRKEHVDKAIVDYEQERLIEAVKALPFHYKLALRSLIESEDVMSAHKMYTDLCNKFKQKPLSYRRFSDIISELDMFGIVKIRIINRGRAGGVKKYALVEDKEKVLRALNETFEDSISIGDFDDVGEN
  soluble on expression in E. coli: soluble

## MNTAVKAAVAAALVMGVSSFANAAGSNTGTVTFTGTIEDSPCSIVVGDEHQTVNLGHIGTGSLMGGKESSKVDFHIGLENCAFTTEKEASTVFSAIGNESSANPGSVALMRIGGGEMAGSSIVIGNHLGSAIKLGDAYSENLTMNGSVAAAKQTLNFKAWVKGDSAATTIDTGEFSSTVNFTISYL
  soluble on expression in E. coli: not soluble

## MSRGVKRVTAITNREREAVLRIEFPNVDVTDIDFDLFQARESTDKPLDVAAAIAYRLLLGSGLPQKFGCSDEVLLNFILQCRKKYRNVPYHNFYHVVDVCQTIYTFLYRGNVYEKLTELECFVLLITALVHDLDHMGLNNSFYLKTESPLGILSSASGNKSVLEVHHCNLAVEILSDPESDVFGGLEGAERTLAFRSMIDCVLATDMARHSEFLEKYLEIMKTSYNVDDSDHRQMTMDVLMKAGDISNVTKPFDVSRQWAMAVTEEFYRQGDMEKERGVEVLPMFDRSKNMELAKGQIGFIDFVAAPFFQKIVDACLQGMQWTVDRTKSNRAQWERVLEARSTGAS
  soluble on expression in E. coli: soluble

## RKVAAKMMQHQLEKHLKALNFDNPLFWTSLPTAADVCNAMNKRGLIYYCGDDFGALAGVDHQTVMEHERTLVDSADFILAASDKLAARFPDNKTTTLPHGVDFSLFSTPAEKASDLPNNGRKILGFYGSLSDWLDYRLIDQVAQHAPDWDLVFIGPNEFAHNPLPQRDNVHYLGPRAHHLLPSYSQHWDASWLPFVDNAQIKACNPLKLLE
  soluble on expression in E. coli: not soluble

## MQSAIVLGGGMIGVSAALHLRQRGWTVTLVDRREPGRETSYGNAGMIQAEAVRPYPMPRDLASLLKIATGRTNDVRYSLSSLHLHIEPLLRYWWHSAPKRHREAIDAWARLIAYATAEHDILIREAHADNLIRRAGYRALYRDAAALDLSIKAAEEDQHEFGVNFRVLSGSELAKAEPVLRDDLPGAIHWLDTWTVSDPGALVTAYAELFERLGGRIVLGDAQSLQQTAAGWSVDTDQGRIDAATAVVTLGPWSPDLLYKFGYRIPLVRKRGYHMHYSGGASLDLPLIDKAGGYAMGPMAKGIRITTGAELTSPDALATPVQLASAEASARELIDLGKRVEPDPWFGTRPCTPDMLPVLGPAPLHPGLWMNFGHGHQGFTLGPATGRLLAEMMSGETPAIDPTPYRPERFLEHHHHHH
  soluble on expression in E. coli: soluble

## MSLSPEDAIVIILSDDDTIRSALDANIHLQGRRSHLCKSRTDFLISPEADLVGCVVLDARLPDLTASDLTHLICAHAIRCPVIVLTGHGGQAMTVNATKFHVSFIPQPFDLNALAEKIHAAIRTTMEIGRLEGNYRTLTPREREVMKFVAEGLLNKQVAFKLNISEITVKAHRGQVMRKMNARTLPHLVNMAAKLDIGVAFLHEGHHHHHH
  soluble on expression in E. coli: soluble

## MEKRGKVWLAVSGLVATKDGRWLFVKKKYSGLKGKWSLPAGFVNEGETVDEAVKREVLEETGIVAHVKGIIGVRSGVIRNEISDNMIIFLLEPEGENIIIQEKELSEVAFLHPDKIVDDPNTSVLIKYLLEGRSELHLEVDKTLNPGEPFGYTAYHVFTARAKERGKE
  soluble on expression in E. coli: not soluble

## MTPYAFTDPRKSELYVVEGDSAGGSAKSGRDSMFQAILPLRGKIINVEKARIDRVLKNTEVQAIITALGTGIHDEFDIGKLRYHKIVLMADADVDGQHISTLLLTLLFRFMRPLIENGHVFLAQPPLYKLKWQRSDPEFAYSDRERDGLLEAGLKAGKKINKEDGIQRYKGLGEMDAKELWETTMDPSVRVLRQVTLDDAAAADELFSILMGEDVDARRSFITRNAKDVRFLDVKLAAALEHHHHHH
  soluble on expression in E. coli: soluble

## MTVRRTAAARRGRDRKAEIVFPAPGADRFGRGDEPSVAVIGGGIAGLAAATLMAERGARVTLYEKEDAVGGRLSGRRTTLADGSAVTMTRGFHAFFRQYYNLRGLLRRTDPGLDRLTPLPDYPLRHSGGLTDGFARVPRTPPLSAIGFVALSPTFGWRDLAAMDPRAALPLLDVRVPQVYERFDGVTATAFLESVRFPEAAHHLAFEVFSRSFFADPRRLSAAELLLMFHIYFLGSSEGLLFDVPVEPFPQALWNPLGDYLRRLGADVRTGTPVHGILPRADGGADVLTDTGADRHQAVVLALDTAGLRQTVAASPGLGTDTWRDGIAALRTAPPFLVSRLWLDRPVDADRPGFLGTSGYGGLDNVSVLERYEGEAARWAARTGGSVVELHAYAVDPAAEPKEVQDELVDRLHQAYPETREARVVDARHEWRADCPMFEVGSHRRRPTVRTPHPWLTLAGDGIRCDLPVALMERAATTGFLAANALLADRGVRGQVLWTVPRTGRSPVLRAFGAVAGHRSAPLEHHHHHH
  soluble on expression in E. coli: not soluble

## MFDFNDSMVSNAIIKVVGVGGGGGNAVQHMCEEVSDVEFFALNTDGQALSKSKVQNILQIGTNLTKGLGAGANPEIGKRAATEDRAKIEQLLEGADMVFITAGMGGGTGTGGAPVVAEVAKEMGILTVAVVTKPFPFEGPRRMKAAEQGIDELTKHVDSIITVPNEKLLSVLGKGASLIDAFNAANDVLGNAVKGVSELITKPGLINVDFADVRAVMTNMGLAMMGMGEASGENRAREAAEAAISSPLLEDINLDGAKGVIVNITAGMDMSIGEFEEVGEVIRSFISDEAIVIAGTVIDPDMSDSMKVTVVVTGIEKVAMKRGFGVEKTSSLQQSASSFSNKTSAPFLRKETEVVTGASNAPKTDSDDVNKSDIPSFLRRR
  soluble on expression in E. coli: not soluble

## GSHMEEPSDLEELEQFAKTFKQRRIKLGFTQGDVGLAMGKLYGNDFSQTTISRFEALNLSFKNMAKLKPLLEKWLNDAENLSSDSSLSSPSALNSPGIEGLSERRKKRTSIETNIRVALEKSFLENQKPTSEEITMIADQLNMEKEVIRVWFCNRRQKEKRINPPSS
  soluble on expression in E. coli: soluble

## ARGSHMEEMIRSLQQRPEPTPEEWDLIHIATEAHRSTNAQGSHWKQRRKFLPDDIGQSPIVSMPDGDKVDLEAFSEFTKIITPAITRVVDFAKKLPMFSELPCEDQIILLKGCCMEIMSLRAAVRYDPESDTLTLSGEMAVKREQLKNGGLGVVSDAIFELGKSLSAFNLDDTEVALLQAVLLMSTDRSGLLCVDKIEKSQEAYLLAFEHYVNHRKHNIPHFWPKLLMKVTDLRMIGACHASRFLHCKVECPTELFPPLFLEVFEDQEV
  soluble on expression in E. coli: soluble

## SAESWLRLSGAGPAEEAGPEGGLEEPDALDDSLTSLQWLQEFSILNAKAPALPPGGTDPHGYHQVPGSAAPGSPLAADPACLGQPHTPGKPTSSCTSRSAPPGLQAPPPDDVDYATNPHVKPPYSYATLICMAMQASKATKITLSAIYKWITDNFCYFRHADPTWQNSIRHNLSLNKCFIKVPREKDEPGKGGFWRIDPQYAERLLSGAFKKRRLPPVHIHPAFARQAAQEPSAVPRAGPLTVNTEAQQLLREFEEATGEAGWGAGEGRLGHKRKQPLPKRVAKVPRPPSTLLPTPEEQGELEPLKGNFDWEAIFDAGTLGGELGALEALELSPPLSPASHVDVDLTIHGRHIDCPATWGPSVEQAADSLDFDETFLATSFLQHPWDESGSGCLPPEPLFEAGDATLASDLQDWASVGAFL
  soluble on expression in E. coli: soluble

## SIVHHAKERLILCSPYFIPDESLLEAVTSACYRGVTVELFVSEQADQFAIDHAQSSYYQALLEAGVKIYQFPKPDVLHTKYMIADPDDTTGNEALGVLGSSNLDIRSFGLNYEISLMIAKGNLIHELNALTDRYRTVSFKLTLDKWNQRSWRRRYVDNVMRLTSALQ
  soluble on expression in E. coli: not soluble

## MSLADTLMSDTPFWQRKTLDEMTDAEWESLCDGCGQCCLHKLMDEDTDEIYFTNVACRQLNIKTCQCRHYERRFEFEPDCIKLTRENLPDFEWLPMTCAYRLLAEGKPLPTWHPLLTGSKAAMHGERISVRHIAVKESEVRDWQDHILNKPSWAEEGHHHHHH
  soluble on expression in E. coli: not soluble

## VNEIVVNPNATLDWQLALRQAAGKTDLARDMLQMLLDFLPEVRNKVEEQLVGENPEGLVDLIHKLHGSCGYSGVPRMKNLCQLIEQQLRSGTKEEDLEPELLELLDEMDNVAREASKILG
  soluble on expression in E. coli: soluble

## MSACAPVHRDPPAPASLRAMPGARWLSGVVLGGLSLGLMACGPKDIEGLRTADYLGGDQRSGVLTYRETPPMGGPYNPLWQTCAAYAQPVYNEYAVHSLARGAVWVTYRPGLDAAELDKLKALLAGQPAALLSPYPNLPAPVVMTAWNRQLSAQTADDPRLTRFLKEILPENSAPEKGSPCARGFGGTR
  soluble on expression in E. coli: soluble
